The values that follow come from PMC6004480 (Proceedings of the National Academy of Sciences of the …, 2018).

First the molecules themselves.
T1: MTR4, full length (human, UniProt P42285 1-1042)
T1 sequence: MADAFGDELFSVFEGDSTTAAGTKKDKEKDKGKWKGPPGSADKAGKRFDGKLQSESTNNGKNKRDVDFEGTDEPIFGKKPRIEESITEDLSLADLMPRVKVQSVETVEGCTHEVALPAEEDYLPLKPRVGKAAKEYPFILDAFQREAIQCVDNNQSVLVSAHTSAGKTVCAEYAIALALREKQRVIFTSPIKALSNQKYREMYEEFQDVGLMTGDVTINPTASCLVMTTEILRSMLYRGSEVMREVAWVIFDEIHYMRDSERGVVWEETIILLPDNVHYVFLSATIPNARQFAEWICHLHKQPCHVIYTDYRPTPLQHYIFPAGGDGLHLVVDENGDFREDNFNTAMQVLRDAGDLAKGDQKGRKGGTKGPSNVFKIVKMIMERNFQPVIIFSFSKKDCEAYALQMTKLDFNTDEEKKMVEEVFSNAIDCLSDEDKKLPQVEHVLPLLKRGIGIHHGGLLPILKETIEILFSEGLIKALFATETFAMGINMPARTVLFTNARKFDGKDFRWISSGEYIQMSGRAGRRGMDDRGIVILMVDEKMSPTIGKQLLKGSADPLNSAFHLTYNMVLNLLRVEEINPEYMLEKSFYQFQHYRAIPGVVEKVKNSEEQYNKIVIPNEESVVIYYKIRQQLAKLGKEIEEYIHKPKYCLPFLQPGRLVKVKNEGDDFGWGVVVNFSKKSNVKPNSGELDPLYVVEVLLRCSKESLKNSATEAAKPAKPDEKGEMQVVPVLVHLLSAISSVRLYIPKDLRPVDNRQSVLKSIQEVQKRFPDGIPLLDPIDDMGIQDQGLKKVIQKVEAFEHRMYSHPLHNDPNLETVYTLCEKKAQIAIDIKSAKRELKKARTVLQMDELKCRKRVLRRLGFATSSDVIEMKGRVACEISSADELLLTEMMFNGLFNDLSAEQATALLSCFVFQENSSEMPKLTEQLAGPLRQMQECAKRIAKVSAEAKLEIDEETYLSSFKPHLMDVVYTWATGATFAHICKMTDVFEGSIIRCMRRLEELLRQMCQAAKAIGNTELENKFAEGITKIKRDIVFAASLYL

B1: ZCCHC8, full length (Z1) (natural protein)
chain: MAAEVYFGDLELFEPFDHPEESIPKPVHTRFKDDDGDEEDENGVGDAELRERLRQCEETIEQLRAENQELKRKLNILTRPSGILVNDTKLDGPILQILFMNNAISKQYHQEIEEFVSNLVKRFEEQQKNDVEKTSFNLLPQPSSIVLEEDHKVEESCAIKNNKEAFSVVGSVLYFTNFCLDKLGQPLLNENPQLSEGWEIPKYHQVFSHIVSLEGQEIQVKAKRPKPHCFNCGSEEHQMKDCPMPRNAARISEKRKEYMDACGEANNQNFQQRYHAEEVEERFGRFKPGVISEELQDALGVTDKSLPPFIYRMRQLGYPPGWLKEAELENSGLALYDGKDGTDGETEVGEIQQNKSVTYDLSKLVNYPGFNISTPRGIPDEWRIFGSIPMQACQQKDVFANYLTSNFQAPGVKSGNKRSSSHSSPGSPKKQKNESNSAGSPADMELDSDMEVPHGSQSSESFQFQPPLPPDTPPLPRGTPPPVFTPPLPKGTPPLTPSDSPQTRTASGAVDEDALTLEELEEQQRRIWAALEQAESVNSDSDVPVDTPLTGNSVASSPCPNELDLPVPEGKTSEKQTLDEPEVPEIFTKKSEAGHASSPDSEVTSLCQKEKAELAPVNTEGALLDNGSVVPNCDISNGGSQKLFPADTSPSTATKIHSPIPDMSKFATGITPFEFENMAESTGMYLRIRSLLKNSPRNQQKNKKASE
B2: ZCCHC8 1-327 (Z2) (domain or fragment)
chain: MAAEVYFGDLELFEPFDHPEESIPKPVHTRFKDDDGDEEDENGVGDAELRERLRQCEETIEQLRAENQELKRKLNILTRPSGILVNDTKLDGPILQILFMNNAISKQYHQEIEEFVSNLVKRFEEQQKNDVEKTSFNLLPQPSSIVLEEDHKVEESCAIKNNKEAFSVVGSVLYFTNFCLDKLGQPLLNENPQLSEGWEIPKYHQVFSHIVSLEGQEIQVKAKRPKPHCFNCGSEEHQMKDCPMPRNAARISEKRKEYMDACGEANNQNFQQRYHAEEVEERFGRFKPGVISEELQDALGVTDKSLPPFIYRMRQLGYPPGWLKEAE
B3: Copurified complex of Strep-RBM7core and full-length ZCCHC8 (Z1) (complex)
chain 1: AEADRTLFVGNLETKVTEELLFELFHQAGPVIKVKIPKDKDGKPKQFAFVNFKHEVSVPYAMNLLNGIKLYGRPIKIQFRSGSSHAPQD
chain 2: MAAEVYFGDLELFEPFDHPEESIPKPVHTRFKDDDGDEEDENGVGDAELRERLRQCEETIEQLRAENQELKRKLNILTRPSGILVNDTKLDGPILQILFMNNAISKQYHQEIEEFVSNLVKRFEEQQKNDVEKTSFNLLPQPSSIVLEEDHKVEESCAIKNNKEAFSVVGSVLYFTNFCLDKLGQPLLNENPQLSEGWEIPKYHQVFSHIVSLEGQEIQVKAKRPKPHCFNCGSEEHQMKDCPMPRNAARISEKRKEYMDACGEANNQNFQQRYHAEEVEERFGRFKPGVISEELQDALGVTDKSLPPFIYRMRQLGYPPGWLKEAELENSGLALYDGKDGTDGETEVGEIQQNKSVTYDLSKLVNYPGFNISTPRGIPDEWRIFGSIPMQACQQKDVFANYLTSNFQAPGVKSGNKRSSSHSSPGSPKKQKNESNSAGSPADMELDSDMEVPHGSQSSESFQFQPPLPPDTPPLPRGTPPPVFTPPLPKGTPPLTPSDSPQTRTASGAVDEDALTLEELEEQQRRIWAALEQAESVNSDSDVPVDTPLTGNSVASSPCPNELDLPVPEGKTSEKQTLDEPEVPEIFTKKSEAGHASSPDSEVTSLCQKEKAELAPVNTEGALLDNGSVVPNCDISNGGSQKLFPADTSPSTATKIHSPIPDMSKFATGITPFEFENMAESTGMYLRIRSLLKNSPRNQQKNKKASE
B4: Copurified complex of Strep-RBM7core and ZCCHC8 283-415 + 508-707 (Z4) (complex)
chain 1: AEADRTLFVGNLETKVTEELLFELFHQAGPVIKVKIPKDKDGKPKQFAFVNFKHEVSVPYAMNLLNGIKLYGRPIKIQFRSGSSHAPQD
chain 2: FGRFKPGVISEELQDALGVTDKSLPPFIYRMRQLGYPPGWLKEAELENSGLALYDGKDGTDGETEVGEIQQNKSVTYDLSKLVNYPGFNISTPRGIPDEWRIFGSIPMQACQQKDVFANYLTSNFQAPGVKSGGAVDEDALTLEELEEQQRRIWAALEQAESVNSDSDVPVDTPLTGNSVASSPCPNELDLPVPEGKTSEKQTLDEPEVPEIFTKKSEAGHASSPDSEVTSLCQKEKAELAPVNTEGALLDNGSVVPNCDISNGGSQKLFPADTSPSTATKIHSPIPDMSKFATGITPFEFENMAESTGMYLRIRSLLKNSPRNQQKNKKASE
B5: Copurified complex of Strep-RBM7core and ZCCHC8 1-327 (Z2) (complex)
chain 1: AEADRTLFVGNLETKVTEELLFELFHQAGPVIKVKIPKDKDGKPKQFAFVNFKHEVSVPYAMNLLNGIKLYGRPIKIQFRSGSSHAPQD
chain 2: MAAEVYFGDLELFEPFDHPEESIPKPVHTRFKDDDGDEEDENGVGDAELRERLRQCEETIEQLRAENQELKRKLNILTRPSGILVNDTKLDGPILQILFMNNAISKQYHQEIEEFVSNLVKRFEEQQKNDVEKTSFNLLPQPSSIVLEEDHKVEESCAIKNNKEAFSVVGSVLYFTNFCLDKLGQPLLNENPQLSEGWEIPKYHQVFSHIVSLEGQEIQVKAKRPKPHCFNCGSEEHQMKDCPMPRNAARISEKRKEYMDACGEANNQNFQQRYHAEEVEERFGRFKPGVISEELQDALGVTDKSLPPFIYRMRQLGYPPGWLKEAE
B6: Strep-tagged ZCCHC8 C-terminal domain (Z5; 659-707) (domain or fragment)
chain: PIPDMSKFATGITPFEFENMAESTGMYLRIRSLLKNSPRNQQKNKKASE
B7: ZCCHC8 283-415 + 508-707 (Z4) (domain or fragment)
chain: FGRFKPGVISEELQDALGVTDKSLPPFIYRMRQLGYPPGWLKEAELENSGLALYDGKDGTDGETEVGEIQQNKSVTYDLSKLVNYPGFNISTPRGIPDEWRIFGSIPMQACQQKDVFANYLTSNFQAPGVKSGGAVDEDALTLEELEEQQRRIWAALEQAESVNSDSDVPVDTPLTGNSVASSPCPNELDLPVPEGKTSEKQTLDEPEVPEIFTKKSEAGHASSPDSEVTSLCQKEKAELAPVNTEGALLDNGSVVPNCDISNGGSQKLFPADTSPSTATKIHSPIPDMSKFATGITPFEFENMAESTGMYLRIRSLLKNSPRNQQKNKKASE
B8: Substrate I (dsRNA)
RNA 1: AGUGCGCUGUAUCUUCAAGGCCACU
RNA 2: AGUGGCCUUGAAGAUACAGCGCACUUUUUUAAAAAAAAAAAAAAA
B9: Substrate II (dsRNA)
RNA 1: AGUGCGCUGUAUCUUCAAGGCCACU
RNA 2: AGUGGCCUUGAAGAUACAGCGCACUAAAAAUUUUUAAAAAAAAAA
B10: Substrate III (dsRNA)
RNA 1: AGUGCGCUGUAUCUUCAAGGCCACU
RNA 2: AGUGGCCUUGAAGAUACAGCGCACUAAAAAAAAAAUUUUUAAAAA

The first series deals with T1, MTR4, full length. Briefly: SEC.
B1: the binding result is recorded as “binds”.

For the next series, the target named is T1, MTR4, full length. Briefly: pull-down.
B2: the binding result is on record as “binds”.
Same read-out and setting: the value for B3 was “binds”; that for B4 was “binds”; that for B5 was “binds”.
On to B6, for which the binding result was “binds”.
For B7, the binding result was “binds”.

In another series the target is MTR4;ZCCHC8core;RBM7core (Homo sapiens?;Homo sapiens?;Homo …, UniProt P42285;Q6NZY4;Q9Y580 1-1042;1-707;6-94, |del416-507|). Nature of the series: EMSA.
Turning to B8, the binding result is “binds”.
Same read-out and setting: the value for B9 was “binds”.
The same measure, in the same setting: the same measure for B10: “binds”.
